The supplement of paper PMC11811203

B1: THAP1; numbered along this chain (parent)
chain: MVQSCSAYGCKNRYDKDKPVSFHKFPLTRPSLCKEWEAAVRRKNFKPTKYSSICSEHFTPDCFKRECNNKLLKENAVPTIFLCTEPHDKKEDLLEPQEQLPPPPLPPPVSQVDAAIGLLMPPLQTPVNLSVFCDHNYTVEDTMHQRKRIHQLEQQVEKLRKKLKTAQQRCRRQERQLEKLKEVVHFQKEKDDVSERGYVILPNDYFEIVEVPA

Variants of: B1
Assay: THAP1 transcriptional activity (GFP+/GFP- enrichment relative to wild-type constructs) (ratio to WT); higher = more THAP1 activity (PSMB5 reporter activation)
Conditions: with PSMB5 promoter-GFP reporter
Outline: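 A lentiviral site-saturation library covering residues 2–213 of human THAP1, with each position changed to all 20 amino acids, was transduced in duplicate at MOI ~0.3 into THAP1-knockout HEK-293T cells with mClover3 knocked in at endogenous PSMB5. Five days later, BFP+ cells were sorted into GFP-dim and GFP-bright bins and variants were counted by Illumina sequencing of genomic DNA amplicons. Activity is the bright/dim read fold change averaged over replicates and divided by the mean of wild-type synonymous constructs.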

THAP1 transcriptional activity, by site and new letter:
F132: R 0.942, K 1, G 0.49, P 0.285, I 0.806, H 1.03, Q 0.462, C 0.597, Y 0.392, T 0.436, E 0.425, M 1.06, W 0.329, N 0.635, S 0.452, D 0.363, A 0.892, L 1.12, V 0.402
H135: F 0.196, G 0.152, Q 0.151, R 0.0891, A 0.145, M 0.0946, W 0.177, E 0.396, T 0.111, L 0.0852, C 0.22, V 0.227, I 0.146, P 0.31, S 0.182, Y 0.217, D 0.195, N 0.183
N128: T 0.494, P 0.417, K 0.645, D 0.549, F 0.259, Y 0.306, H 0.446, G 0.685, M 0.264, I 0.201, V 0.346, S 0.395, Q 0.507, W 0.283, R 0.823, C 0.306, E 0.856, A 0.714, L 0.284
M143: S 0.971, F 0.339, P 1.2, L 0.725, K 0.848, V 1.09, W 0.719, T 1.19, H 0.575, N 0.961, R 0.991, Q 0.669, Y 0.547, G 1.05, E 0.983, I 0.679, A 0.634, C 1.09, D 1.76
D134: R 0.265, P 0.296, S 0.277, Y 0.166, C 0.156, N 0.121, V 0.123, T 0.354, K 0.141, I 0.153, A 0.125, H 0.203, G 0.148, F 0.144, M 0.159, W 0.177, Q 0.0618, E 0.389
V139: I 0.897, A 0.763, W 0.454, Q 0.576, Y 0.59, M 1.22, C 0.724, S 0.407, T 0.34, F 0.996, D 0.0939, G 0.378, P 0.163, E 0.369, R 0.938, K 1.41, L 1.18, H 0.721
C133: V 2.05, A 0.667, F 0.613, S 1.44, K 1.7, G 0.883, P 0.267, N 1.15, R 1.24, M 0.928, D 0.73, W 2.31, E 0.936, T 0.872, H 2.5, Q 1.27, I 1.29, L 1.89, Y 0.913
H144: C 0.498, F 0.637, A 1.5, E 0.421, D 0.747, G 1.11, M 0.509, P 0.334, K 0.954, N 0.686
P126: V 0.434, W 0.207, T 0.484, Y 0.194
S130: V 0.196, M 0.164, T 0.436, P 0.611, H 0.517, G 0.946, L 0.324, D 0.555, A 0.566, K 0.625, C 0.265, F 0.246, R 0.271, W 0.276, Y 0.1, I 0.104, Q 0.656, E 0.224, N 0.651
D141: Y 0.644, F 0.552, R 0.588, H 0.514, A 0.37, L 0.286, S 0.634, N 0.776, I 0.309, W 0.255, P 0.986, V 0.352, T 0.642, M 0.395, C 0.355, G 0.809, E 1.51, Q 0.581, K 0.927
T138: W 0.363, N 0.196, K 0.191, L 0.13, P 0.286, I 0.274, M 0.238, S 1.07, Q 0.224, R 0.375, Y 0.424, G 0.526, C 2.63, E 0.215, A 2.41, V 0.728, H 0.837, D 0.306, F 0.626
L129: P 0.79, T 1.05, R 1.86, S 1.2, D 0.405, H 1, C 0.646, Y 0.843, M 0.714, G 0.706, V 0.92, E 0.516, Q 0.659, N 1.4, W 1.7, F 1.16, I 1.12, K 1.95, A 0.855
Y137: C 0.147, D 0.172, M 0.114, R 0.214, H 0.111, V 0.0934, N 0.195, T 0.136, S 0.137, A 0.0848, G 0.161, K 0.211, I 0.109, F 0.161, Q 0.186, L 0.167, P 0.117, W 0.0825, E 0.152
V127: N 0.997, K 1.64, I 0.501, H 0.843, C 0.636, W 0.336, M 0.396, P 0.879, G 0.609, Q 1.02, T 0.875, L 0.775, Y 0.411, D 0.851, S 1.39, E 0.897, F 0.642, R 1.19, A 0.82
E140: L 1.81, F 1.16, Q 1.61, H 0.784, A 1.46, R 1.3, K 4.18, G 2.94, M 1.04, N 1.33, D 0.727, I 1.08, P 3.02, W 1.1, V 1.01, T 1.57, Y 1.16, S 1.48, C 0.908
V131: R 0.367, D 0.241, F 0.399, H 0.401, Y 0.27, S 0.28, M 0.291, Q 0.386, I 0.81, K 0.299, P 0.75, A 0.451, N 0.494, G 0.244, C 0.427, E 0.239, T 0.276, W 0.261, L 0.533
T142: L 0.587, D 0.738, W 0.266, E 1.23, C 0.803, K 0.964, H 0.658, I 0.34, Y 0.248, S 0.66, V 0.403, A 0.581, G 0.864, F 0.386, N 0.392, P 0.997, Q 0.756, M 0.188, R 0.576
N136: M 0.134, Y 0.187, A 0.208, G 0.109, C 0.164, L 0.102, P 0.263, H 0.131, W 0.0779, K 0.142, R 0.364, Q 0.102, I 0.149, T 0.311, V 0.0965, D 0.153, S 0.345, F 0.279, E 0.14
